Experimental data taken from patent publication US20170174769A1 (Regeneron, published 2017).

T1: extracellular domain of human KLB expressed with C-terminal HA and hexahistidine tags (human, UniProt Q86Z14 1-996)
T1 construct: also called hKLB-HA-6His; hKLB-HA-6his
T1 sequence: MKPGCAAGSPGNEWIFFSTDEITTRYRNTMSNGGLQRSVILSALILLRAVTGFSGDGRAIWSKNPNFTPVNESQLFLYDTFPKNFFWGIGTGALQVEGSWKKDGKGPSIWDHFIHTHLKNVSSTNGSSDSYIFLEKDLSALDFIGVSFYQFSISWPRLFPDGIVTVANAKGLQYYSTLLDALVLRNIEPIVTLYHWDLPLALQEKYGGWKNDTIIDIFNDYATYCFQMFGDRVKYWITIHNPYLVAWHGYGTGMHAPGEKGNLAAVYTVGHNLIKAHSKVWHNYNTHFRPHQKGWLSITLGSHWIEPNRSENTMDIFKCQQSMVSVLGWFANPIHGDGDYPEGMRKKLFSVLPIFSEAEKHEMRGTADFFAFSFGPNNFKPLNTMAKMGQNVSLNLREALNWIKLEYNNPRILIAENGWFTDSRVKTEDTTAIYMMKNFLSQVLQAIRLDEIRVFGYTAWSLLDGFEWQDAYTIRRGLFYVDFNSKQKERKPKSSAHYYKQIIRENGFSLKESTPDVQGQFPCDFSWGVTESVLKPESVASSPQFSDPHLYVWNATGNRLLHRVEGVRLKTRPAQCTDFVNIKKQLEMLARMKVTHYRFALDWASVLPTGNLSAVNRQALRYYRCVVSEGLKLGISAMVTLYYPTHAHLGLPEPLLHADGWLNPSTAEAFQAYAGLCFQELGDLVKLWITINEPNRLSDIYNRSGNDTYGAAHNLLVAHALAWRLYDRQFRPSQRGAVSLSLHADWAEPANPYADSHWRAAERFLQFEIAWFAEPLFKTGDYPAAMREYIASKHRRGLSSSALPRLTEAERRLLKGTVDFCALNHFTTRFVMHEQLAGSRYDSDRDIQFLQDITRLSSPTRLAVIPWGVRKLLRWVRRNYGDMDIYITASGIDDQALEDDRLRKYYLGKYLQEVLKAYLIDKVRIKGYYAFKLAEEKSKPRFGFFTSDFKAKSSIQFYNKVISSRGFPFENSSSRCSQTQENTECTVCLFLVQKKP

T2: extracellular domain of human FGFR1c expressed with C-terminal V5 and hexahistidine tags (human, UniProt P11362 22-376)
T2 construct: also called hFGFR1c-V5-6His
T2 sequence: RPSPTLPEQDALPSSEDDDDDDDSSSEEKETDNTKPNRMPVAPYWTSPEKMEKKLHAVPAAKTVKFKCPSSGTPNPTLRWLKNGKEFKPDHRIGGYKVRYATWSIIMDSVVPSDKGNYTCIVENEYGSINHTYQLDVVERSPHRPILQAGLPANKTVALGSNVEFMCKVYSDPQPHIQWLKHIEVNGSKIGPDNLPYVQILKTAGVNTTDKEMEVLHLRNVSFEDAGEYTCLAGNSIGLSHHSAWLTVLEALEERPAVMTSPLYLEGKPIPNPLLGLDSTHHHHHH


Experiments:
[1] = biological target: T1, extracellular domain of human KLB …; test: SPR, mAb captured, 37 C
Protocol: (§1) Equilibrium dissociation constants (KD values) for human KLB or human FGFR1c binding to purified anti-KLB/FGFR1c monoclonal antibodies were determined using a real-time surface plasmon resonance biosensor using a Biacore T-200 or 4000 instrument. The Biacore sensor surface was derivatized by amine coupling with either a polyclonal rabbit anti-mouse antibody (GE, # BR-1008-38) or with a monoclonal mouse anti-human Fc antibody (GE, # BR-1008-39) to capture anti-KLB/FGFR1c monoclonal antibodies expressed with either a mouse Fc or a human Fc, respectively. All Biacore binding studies were performed in a buffer composed of 0.01M HEPES pH 7.4, 0.15M NaCl, 3mM EDTA, 0.05% v/v Surfactant P20 (HBST running buffer). […] Association of hKLB-HA-6His or hFGFR1c-V5-6His to the captured monoclonal antibody was monitored for 3.5 to 4 minutes and the dissociation of hKLB-HA-6His or hFGFR1c-V5-6His in HBST running buffer was monitored for 8-12 minutes. All the binding kinetics experiments were performed at 25° C. or 37° C. Kinetic association (kₐ) and dissociation (kd) rate constants were determined by fitting the real-time sensorgrams to a 1:1 binding model using Scrubber 2.0c curve fitting software. Binding dissociation equilibrium constants (KD) and dissociative half-lives (t½) were calculated from the kinetic rate constants as: […]

[2] = biological target: T2, extracellular domain of human FGFR1c …; test: SPR, mAb captured, 37 C
Protocol: as §1

[3] = biological target: T3, human KLB and human FGFR1c co-expressed on HEK293/hKLB/hFGFR1c/SRE-luc cells (human, UniProt Q86Z14 1-1044; P11362 22-822); test: cell-based or functional assay
[4] = biological target: T3, human KLB and human FGFR1c co-expressed …; test: cell-based or functional assay; remark: listed apart in the source
[5] = biological target: M. fascicularis KLB and human FGFR1c co-expressed on HEK293/MfKLB/hFGFR1c/SRE-Luc cells (M. fascicularis; human, UniProt A0A2K5WB58 1-1044); test: cell-based or functional assay

| 20 nM hKLB-HA-6His Bind (RU) [1] [RU] | 180 nM hFGFR1c-V5-6His Bind (RU) [2] [RU] | IC50, inhibition of 1 nM hFGF21 [3] [nM] | Maximum Inhibition (%) of 1 nM hFGF21 [3] [%] | EC50, SRE-luc activation without ligand [4] [nM] | Maximum Activation (%) without ligand [4] [%] | IC50, inhibition of 10 nM mfFGF21 [5] [nM] | Maximum Inhibition (%) of 10 nM mfFGF21 [5] [%] | Kd [1] [nM] | koff [1] [s⁻¹] | kon [1] [M⁻¹ s⁻¹] | t1/2 [1] [h] | EC50, SRE-luc activation without ligand [5] [nM] | Maximum Activation (%) without ligand [5] [%] | Kd [2] [nM] | koff [2] [s⁻¹] | kon [2] [M⁻¹ s⁻¹] | t1/2 [2] [s] | Binder |
| --- | --- | --- | --- | --- | --- | --- | --- | --- | --- | --- | --- | --- | --- | --- | --- | --- | --- | --- |
| -0.1 | 2.8 | 0.04 | 20 |  |  |  |  |  |  |  |  |  |  |  |  |  |  | H1H8899P (antibody, V domains shown) VH: EVQLVESGGGLVQPGGSLRLSCAASGFTFSSHWMSWVRQAPGKGLEWVANIKQDGSEKYYVDSVKGRFTISRDNAKNSLYLQISSLRAEDTAVYYCASNWNFLFDFWGQGTLVTVSS VL: not shown |
| 36.8 | 0.7 | 0.033 | 23 | 3.3 | 0.5 | 0.19 | 32 | 6.2 | 0.00131 | 211000 | 0.147 |  |  |  |  |  |  | H2aM8109N (antibody, V domains shown, mouse IgG2 Fc (H2aM prefix)) VH: QVQVVESGGGVVQPGRSLRLSCAASGFTFSSYGLHWVRQAPGKGLEWVAVIWHDGSHKYYADSVKGRFTISRDNSKNTLYLQMNSLRAEDTAVYYCARDGIPVAEDYYFYGMDVWGQGTTVTVSS VL: DIQMTQSPSSLSASVGDRVTITCRASQGIRNDLGWYQQKPGKAPKRLIYAASSLQSGVPSRFSGSGSGTEFTLTISSLQPEDFAIYYCLQHNSLTFGGGTKVEIK |
| 118 | 0.4 | 0.09 | 65 | 0.053 | 1 | 0.03 | 47 | 0.206 | 0.000144 | 699000 | 1.34 |  |  |  |  |  |  | H1M8115N (antibody, V domains shown, H1M Fc prefix (mouse Fc)) VH: QVQLVQSGAEVKKPGSSVKVSCKASGGTFSTYEISWVRQAPGQGLEWMGGIIPVFGTTHYAQKFQDSVTITTDESTGTAFMELSSLKSEDTAVYYCARGGAGGDNWGQGTLVTVSS VL: not shown |
| 5.1 | 1 | 0.38 | 101 | 0.21 | 5 | 0.47 | 101 |  |  |  |  | 0.046 | 5 |  |  |  |  | H4H8852P (antibody, V domains shown, human IgG4 Fc (H4H prefix)) VH: QVQLQESGPGLVKPSETLSLTCTVSGGSISSYYWSWIRQPPGKGLEWIGYIYSSGIIKYNPSLKSRVTISADTSKNQFSLKLSSVTAADTAVYYCARHGIFGVMEYFQRWGQGTLVTVSS VL: DIQMTQSPSSLSASIGDRVTITCQASQDIGNFLNWYQQKPGKAPTLLIYDASNMETGVPSRFSGSGSGTYFTFTISSLQPEDVATYYCQQYDNLPLTFGGGTKVEIK |
| 0.8 | 6.8 |  |  |  |  |  |  |  |  |  |  |  |  | 497 | 0.0382 | 76800 | 18 | H4H8859P (antibody, V domains shown, human IgG4 Fc (H4H prefix)) VH: EVQLVESGGSVVRPGGSLRLSCAASGFTFDVYGMSWVRQAPGKGLEWVSGINWIGGSTGYADSVKGRFTISRDNAKNSLYLQMNSLRAEDTALYYCTREEDYWGQGTLVTVSS VL: DVVMTQSPLSLAVTLGQPASISCRSSQSLVYSDGNTYLNWFQQRPGQSPRRLFYKVSNRDSGVPDRFSGSGSGTDFTLKISRVEAEDVGIYYCMQGIKWPLTFGGGTKVEIK |
| 3.9 | -1.4 | 15 | 62 | 23 | 1 |  |  |  |  |  |  |  |  |  |  |  |  | H2aM8098N (antibody, V domains shown, mouse IgG2 Fc (H2aM prefix)) VH: QLQLQESGPGLVKPSETLSLTCTVSGGSISSSNYYWDWIRQTPEKGLEWIGSIHYSGTSYYNPSLKSRVTISVDTSKNQFSLKLRSVTAADAAVYYCARQTSVYWYFDIWGHGTLVTVST VL: EIVLTQSPGTLSLSPGEGATLSCRASQSVRNNYLAWYQQKPGQAPRLLIYGASSRAIGIPDRFSGSGSGTDFTLTISRLEPKDFVVYYCQQYGGSLFTFGPGTKVDIK |
| 211 | 0.6 | 0.067 | 65 | 0.068 | 1 | 0.026 | 46 | 0.222 | 0.00018 | 812000 | 1.07 |  |  |  |  |  |  | H2aM8093N (antibody, V domains shown, mouse IgG2 Fc (H2aM prefix)) VH: QVQLVQSGAEVKRPGSSVKVSCKASGDTFSTYAISWVRQAPGQGLEWMGGIIPVFGTTNYAQKFQDRVTITTDESTRTAYMELSSLRSEDTAVYYCAGIAGPDYWGQGTLVTVSS VL: DIQMTQSPSSLSASVGDRVTITCRASQGIRNYLAWFQQKPGKAPKSLIYLATSLQSGVPSKFSGSGSGTDFTLTISSLQPEDFATYYCQQYYSYPWTFGQGTKVEIK |
| 372 | 0.1 | 0.08 | 51 | 0.12 | 1 | 0.089 | 51 | 0.401 | 0.000128 | 320000 | 1.5 |  |  |  |  |  |  | H4H8837P (antibody, V domains shown, human IgG4 Fc (H4H prefix)) VH: QVQLVESGGGVVQPGRSLRLSCAASGFTFNSYAMHWVRQAPGMGLEWVAVISSDGSNKYYADSVRGRFTVSRDNSKNTLYLQMNSLRSEDTAVYYCAKDGRGYSSFSHFGMDVWGQGTTVTVSS VL: DIQMTQSPSTLSASVGDRVTITCRASQSIGSWLAWYQQKPGKAPKLLIYKTSSLESGVPSRFSGSGSGTEFTLTISSLQPDDFASYYCQQYNSYSFGQGTKVEIK |
| -0.7 | 2.3 |  |  | 0.75 | 4 | 0.11 | 15 |  |  |  |  |  |  |  |  |  |  | H2aM8832N (antibody, V domains shown, mouse IgG2 Fc (H2aM prefix)) VH: QVQLVESGGGVVQPGRSLRLSCAASGFTFSRYGMHWVRQAPGKGLEWVAVIWYDGTNKYYEDSLKGRFTISRDNSKNTLYLQMNSLRAEDSAVYYCARDQGKYIDYWGQGTLVTVSS VL: AIQMTQSPSSLSASVGDRVTITCRTSQDIRNDLGWYQQKPGKVPNLLIYAASTLQSGVPSRFSGSGSGTDFTLTISSLQPEDFATYYCLQDYNYPFTFGPGTKVDIK |
